B1: β-glucosidase A (BglA) from Bacillus polymyxa, wild type (enzyme)
chain: TIFQFPQDFMWGTATAAYQIEGAYQEDGRGLSIWDTFAHTPGKVFNGDNGNVACDSYHRYEEDIRLMKELGIRTYRFSVSWPRIFPNGDGEVNQEGLDYYHRVVDLLNDNGIEPFCTLYHWDLPQALQDAGGWGNRRTIQAFVQFAETMFREFHGKIQHWLTFNEPWCIAFLSNMLGVHAPGLTNLQTAIDVGHHLLVAHGLSVRRFRELGTSGQIGIAPNVSWAVPYSTSEEDKAACARTISLHSDWFLQPIYQGSYPQFLVDWFAEQGATVPIQDGDMDIIGEPIDMIGINYYSMSVNRFNPEAGFLQSEEINMGLPVTDIGWPVESRGLYEVLHYLQKYGNIDIYITENGACINDEVVNGKVQDDRRISYMQQHLVQVHRTIHDGLHVKGYMAWSLLDNFEWAEGYNMRFGMIHVDFRTQVRTPKESYYWYRNVVSNNWLETRR
notes: β-glucosidase A (BglA, EC 3.2.1.21) from Bacillus polymyxa, family 1 glycosyl hydrolase; Plasmid pBglA; its vector and construct limits are not described; also called wild type enzyme; source: E. coli BL21 Star (DE3), purified (HisTrap, thrombin, HisTrap, gel filtration on Superdex 200)
B2: β-glucosidase A (BglA) from Bacillus polymyxa, N437E mutant (enzyme)
chain: B1 chain with N436E
notes: β-glucosidase A (BglA, EC 3.2.1.21) from Bacillus polymyxa with N437E, made by site-directed mutagenesis of pBglA; Same construct as m1 apart from the mutation; source: E. coli BL21 Star (DE3), purified (HisTrap, thrombin, HisTrap, gel filtration on Superdex 200)
B3: β-glucosidase A (BglA) from Bacillus polymyxa, N437D mutant (enzyme)
chain: B1 chain with N436D
notes: β-glucosidase A (BglA, EC 3.2.1.21) from Bacillus polymyxa with N437D, made by site-directed mutagenesis of pBglA; Same construct as m1 apart from the mutation; source: E. coli BL21 Star (DE3), purified (HisTrap, thrombin, HisTrap, gel filtration on Superdex 200)

Changes are numbered by the printed parent chain. Names and notes keep the numbering of the source.

The source of these data is article PMC4231051, “Protein Thermal Stability Enhancement by Designing Salt Bridges: A Combined Computational and Experimental Study” (PLoS ONE, 2014).

This series deals with the molecule itself. The series can be described thus: SEC; gel filtration during purification (HiLoad 26/60 Superdex 200 prep-grade), 50 mM citrate phosphate buffer, pH 7; data not shown. (Size exclusion chromatography separates by hydrodynamic size, large species first.)
For the protein B1, the stoichiometry N (usually a count of units in the complex or per binding partner) worked out at 8.
The same measure for B2: 4.
In the case of B3, the “stoichiometry N” value came to 4.
